# Experimental data published in patent US20090068102A1, “TREATING STROKE” (BIOGEN IDEC MA INC., priority 2005, published 2009).
# Key:
# NF-κB = NF-κB luciferase reporter (pNF-κB-Luc) in transfected cortical neurons; assay type: cell-based, mouse
# Method: (§1) Cell culture and transient transfection. Cortical neurons were prepared from embryonic day 16 (E16) mice. For transfection, cells were plated on 24-well plates precoated with poly-D-lysine (50 ng/ml) at a density of 200,000 cells per well. For RNA preparation, 2 million cells per well were plated on six-well plates. Cells were incubated in NEUROBASAL™ medium (Invitrogen) supplemented with B27 (Invitrogen), L-glutamine (0.5 mM), penicillin (100 IU/ml), and streptomycin (100 μg/ml). In these cultures, >95% of cells were positive for the neuronal marker NeuN. After 10 days in vitro, cells were transfected using LIPOFECTAMINE™ 2000 (Invitrogen) and 1 ng per well of the NF-κB reporter plasmid pNF-κB-Luc, which has five tandem repeats of an NF-κB binding site (Stratagene, Amsterdam, The Netherlands), according to the manufacturer's protocol. After 24 hours, cells were stimulated as indicated and harvested. Luciferase activity was measured as described (Sallmann et al. (2000) J. Neurosci. 20:8637-8642).
# (§2) As indicated, cortical neurons were prepared from a transgenic mouse line (NSE-IκBα-SR) that expressed the NF-κB super-repressor, a mutant of IκBα (IκBα-SR), selectively in neurons. In this transgene, two serine residues, which are phosphorylated by the IκB kinase (IKK), are exchanged to alanines. Neuronal expression is driven by a 1.8 KB fragment of the rat neuron-specific enolase (NSE) promoter. The cell dissociation was performed individually from the brain of each transgenic or wild-type embryo. To control for transfection efficiency, cortical neurons of NSE-IκBα-SR mice and wild-type littermates were cotransfected with 0.1 μg Per well of phRL-TK (Promega, Mannheim, Germany) in addition to pNF-κB-Luc.
# cortical neurons [1] = test: TWEAK-induced cell death in cortical neurons (DAPI and TUNEL staining); assay type: cell-based
# Method: as §1
# as §2, with “To control for transfection efficiency, cortical neurons of NSE-IκBα-SR mice and wild-type littermates were cotransfected with 0.1 μg Per well of phRL-TK (Promega, Mannheim, Germany) in addition to pNF-κB-Luc.” left out
# Cell death assays. […] TUNEL and DAPI-positive cells were detected under a fluorescent microscope. On each coverslip, five randomly selected fields were counted with a 40× objective (corresponding to ˜800 cells per coverslip). […] Lactate dehydrogenase (LDH) activity in medium was quantified with the Cytotoxicity Detection Kit (LDH; Roche). LDH activity in untreated sister cultures was subtracted, and the LDH activity was expressed as percentage of the maximally releasable LDH pool in the presence of 1 mM glutamate.
# cortical neurons [2] = test: Cell Death Detection ELISA (histone-associated DNA fragments) in cortical neurons; assay type: cell-based, mouse; details: 100 ng/ml, 24 hr
# Method: Cell death assays. For terminal deoxynucleotidyl transferase-mediated biotinylated UTP nick end labeling (TUNEL) staining, the cells were fixed in 4% paraformaldehyde at room temperature for 30 minutes. Then, cells were washed twice in PBS for 5 minutes and treated for 2 minutes with 200 μl of permeabilization solution (0.1% Triton X-100 and 0.1% sodium citrate in PBS) at 4° C. After washing, sections were incubated with 50 μl of TUNEL reaction mix (enzyme solution diluted 1:6 in labeling solution; In Situ Cell Detection Kit, Fluorescein; Roche, Mannheim, Germany) for 1 hour at 37° C. in the dark. Then, coverslips were mounted with medium containing 4′,6-diamidino-2-phenylindole dihydrochloride (DAPI; VECTASHIELD®; Vector Laboratories, Burlingame, Calif.). TUNEL and DAPI-positive cells were detected under a fluorescent microscope. On each coverslip, five randomly selected fields were counted with a 40× objective (corresponding to ˜800 cells per coverslip). Cell Death Detection ELISA^Plus (Roche) was performed according to the manufacturer's instructions. Lactate dehydrogenase (LDH) activity in medium was quantified with the Cytotoxicity Detection Kit (LDH; Roche). LDH activity in untreated sister cultures was subtracted, and the LDH activity was expressed as percentage of the maximally releasable LDH pool in the presence of 1 mM glutamate.
# [3] = exposure for 24 hours, 100 ng/ml
Molecule,NF-κB activation by rhTWEAK and Fc-hTWEAK (NF-κB; BMS-345541 25 μM),nuclear condensation (DAPI stain) (cortical neurons [1]; [3]),number of cortical neurons that were TUNEL positive (cortical neurons [1]; [3]),"cell death (TUNEL) in IκBα-SR-expressing neurons vs wild-type (cortical neurons [1]; rhTWEAK 100 ng/ml, 24 hours)",DNA-histone complexes specific to apoptotic DNA fragmentation (ELISA) (cortical neurons [2]),effect size in DNA-histone ELISA compared with camptothecin (cortical neurons [2]; vs 10 μM camptothecin),NF-κB stimulation in neurons of NSE-IκBα-SR mice vs wild-type littermates (NF-κB; rhTWEAK 100 ng/ml),NF-κB activity (luciferase) (NF-κB; stimulation for 24 hours)
"Cc1ccc2nc(NCCN)c3ncc(C)n3c2c1 [BMS-345541, reference compound]",blocked,,,,,,,
"rhTWEAK: recombinant soluble human TWEAK containing amino-acid residues A106-H249 (protein, UniProt O43508 106-249, looked up, fragment) AIAAHYEVHPRPGQDGAQAGVDGTVSGWEEARINSSSPLRYNRQIGEFIVTRAGLYYLYCQVHFDEGKAVYLKLDLLVDGVLALRCLEEFSATAASSLGPQLRLCQVSGLLALRPGSSLRIRTLPWAHLKAAPFLTYFGLFQVH",,induced nuclear condensation,increased significantly,protected from cell death,programmed cell death being induced,comparable with the one with 10 μM camptothecin,significantly less,stimulated NF-κB activity in a concentration-dependent manner
